The text below walks through data of US20230183352A1 (published 2023).

Like-named read-outs stand apart in the source and are kept apart here.

Test [1] addresses T1, Claudin 18.2 (CLDN18.2), expressed on CHOS-CLDN 18.2 / HEK293-CLDN 18.2 / HCC827-CLDN 18.2 cells (human, UniProt P56856-2 1-261).
T1 construct: whole, on cells; The species is not repeated for the CHOS-CLDN 18.2 cells; also called claudin-18A2
Briefly: FACS, CHOS-CLDN18.2 cells, 0.078 µg/ml. On the technique in general: In flow cytometry, cells or beads pass a laser one at a time.
Experimental: (§1) The initial concentration of the antibody was 20 μg/ml, it was diluted at 1:4, and incubated at 4° C. for 60 min.

The target in test [2] is T1, Claudin 18.2 (CLDN18.2), expressed on …. Briefly: FACS, CHOS-CLDN18.2 cells, 10 µg/ml.
Experimental: (§2) The initial concentration of the antibody was 20 μg/mkit was diluted at 1:4, and incubated at 4° C. for 60 min.
The target is the same in test [3]. Briefly: FACS, MFI on CHOS-CLDN18.2 over MFI on CHOS-CLDN18.1, 10 µg/ml.
Experimental: as §2
Test [4] shares this target. Briefly: FACS, CHOS-CLDN18.2 cells, 0.020 µg/ml.
Experimental: as §1
The target is the same in test [5]. The test can be described thus: FACS, CHOS-CLDN18.2 cells, 0 µg/ml (background).
Experimental: as §1
Test [6] shares this target. The test can be described thus: FACS, CHOS-CLDN18.2 cells, 0.005 µg/ml.
Experimental: as §1
For test [7] the target is unchanged. Briefly: FACS, CHOS-CLDN18.2 cells.
Experimental: as §1
For test [8] the target is unchanged. The test can be described thus: FACS, CHOS-CLDN18.2 cells, 1.250 µg/ml.
Experimental: as §1
Test [9] has the same target. The test can be described thus: FACS, CHOS-CLDN18.2 cells, 5 µg/ml.
Experimental: as §1
For test [10] the target is unchanged. Briefly: FACS, CHOS-CLDN18.2 cells, 0.313 µg/ml.
Experimental: as §1
Test [11] shares this target. The test can be described thus: FACS, CHOS-CLDN18.2 cells, 20 µg/ml.
Experimental: as §1
The target is the same in test [12]. The test can be described thus: FACS, CHOS-CLDN18.2 cells, 0.020 µg/ml. This is another data set of the same source.
Experimental: as §1
For test [13] the target is unchanged. Briefly: FACS, CHOS-CLDN18.2 cells, 20 µg/ml. The source holds these as a separate data set.
Experimental: as §1
Test [14] has the same target. The test can be described thus: FACS, CHOS-CLDN18.2 cells, 0.005 µg/ml. The source holds these as a separate data set.
Experimental: as §1
Test [15] shares this target. The test can be described thus: FACS, CHOS-CLDN18.2 cells, 0.078 µg/ml. The source holds these as a separate data set.
Experimental: as §1
For test [16] the target is unchanged. Briefly: FACS, CHOS-CLDN18.2 cells, 1.250 µg/ml. The source holds these as a separate data set.
Experimental: as §1
For test [17] the target is unchanged. The test can be described thus: cell-based or functional assay.
Test [18] has the same target. Briefly: FACS, CHOS-CLDN18.2 cells, 0 µg/ml (background). This is another data set of the same source.
Experimental: as §1
Test [19] shares this target. Briefly: FACS, CHOS-CLDN18.2 cells, 5 µg/ml. The source holds these as a separate data set.
Experimental: as §1
The target is the same in test [20]. Briefly: FACS, CHOS-CLDN18.2 cells, 0.313 µg/ml. The source holds these as a separate data set.
Experimental: as §1
For test [21] the target is unchanged. The test can be described thus: FACS, CHOS-CLDN18.2 cells. This is another data set of the same source.
Experimental: as §1

B1: QP199200 (antibody, human IgG1, V domains shown)
VH: DVQLVESGGGLVQPGGSRKLSCAASGFTFSSFGMHWVRQAPEKGLEWVAYISSGSNSIYYVDTVKGRFTISRDNPKNTLFLQMTSLKSEDTAMYYCARNAYYGNSFDYWGQGTTLTVSS
VL: DIVMTQSPSSLTVTAGEKVTMSCKSSQSLLNSGNQKNYLTWYQQKPGQPPKLLIYWASTRESGVPDRFTGSGSGTVFTLTISSVQAEDLAVYFCQNNYYYPLTFGAGTKLELK
notes: Chimeric; also called 43C11; mouse-derived chimeric antibody QP199200
By EC50 is commonly meant the midpoint of the concentration-response curve. Low readings indicate an effect from little substance, high ones a need for much substance. Regarding B1, the FACS reading in test [1] is 19900; in [4], 7520; in test [5], 732; in [6], 2760; in [8], 132000; in [9], 165000. For the same molecule, the FACS reading in test [10] is 50600; in test [11], 218000. The molecule further displayed an MFI in test [2] of 514000. The “CLDN18.2/CLDN18.1 (MFI ratio)” value in [3] was determined as 560. In test [7], this molecule gave an EC50 of 1.19 µg/mL. In test [7], this molecule came in with a max of 165000.

B2: QP14631461 (antibody, human IgG1, kappa, V domains shown)
VH: QVQLVQSGAEVKKPGASVKVSCKASGYTFTSYIMHWVRQAPGQGLEWMGYINPYNDGTKYNEKFKGRVTMTRDTSTSTVYMELSSLRSEDTAVYYCARLGFTTRNAMDYWGQGTLVTVSS
VL: DIVMTQSPDSLAVSLGERATINCKSSQSLLNSGNQKNYLAWYQQKPGQPPKLLIYGASTRESGVPDRFTGSGSGTDFTLTISSLQAEDVAVYYCQNDHSYPFTFGQGTKLEIKR
notes: also called QP14611463
In the case of B2, the FACS reading in [12] stood at 19300. This molecule also yielded an MFI in test [2] of 657000. For the same molecule, the “CLDN18.2/CLDN18.1 (MFI ratio)” value in [3] amounted to 700. In [13], this molecule returned an FACS reading of 131000. For the same molecule, the FACS reading in [14] is 7790. The FACS reading in test [15] is 51400. Further, in [16], the FACS reading amounted to 201000. In test [17], the “EC50 of killing, ADCC (PBMC, HEK293-CLDN18.2 cells)” value worked out at 0.0115 µg/mL; the “Killing percentage, ADCC (PBMC, HEK293-CLDN18.2 cells), 0 µg/ml” value amounted to 4.88%; the “Killing percentage, ADCC (PBMC, HEK293-CLDN18.2 cells), 0.0001024 µg/ml” value amounted to 4.3%; the “Killing percentage, ADCC (PBMC, HEK293-CLDN18.2 cells), 0.000512 µg/ml” value turned out to be 5.65%. In addition, in [17], the “Killing percentage, ADCC (PBMC, HEK293-CLDN18.2 cells), 0.00256 µg/ml” value worked out at 10.2%; the “Killing percentage, ADCC (PBMC, HEK293-CLDN18.2 cells), 0.0128 µg/ml” value stood at 23.4%; the “Killing percentage, ADCC (PBMC, HEK293-CLDN18.2 cells), 0.064 µg/ml” value came out at 39.3%; the “Killing percentage, ADCC (PBMC, HEK293-CLDN18.2 cells), 0.32 µg/ml” value is 43.8%. Moreover, in test [17], the “Killing percentage, ADCC (PBMC, HEK293-CLDN18.2 cells), 1.6 µg/ml” value was 43.4%; the “Killing percentage, ADCC (PBMC, HEK293-CLDN18.2 cells), 8 µg/ml” value was found to be 46.3%; the “Killing percentage, ADCC (PBMC, HEK293-CLDN18.2 cells), 40 µg/ml” value came out at 28.6%. In test [18], this molecule returned an FACS reading of 732. For the same molecule, the FACS reading in [19] was determined as 227000. The same molecule displayed an FACS reading in [20] of 144000. In [21], the midpoint of the response, the EC50, lay at 0.156 µg/mL and the max turned out to be 227000.

B3: QP14501448 (antibody, human IgG1, kappa, V domains shown)
VH: EVQLVESGGGLVQPGGSLRLSCAASGFTFSSFGMHWVRQAPGKGLEWVAYISSGSNSIYYVDTVKGRFTISRDNAKNSLYLQMNSLRDEDTAVYYCARNAYYGNSFDYWGQGTLVTVSS
VL: DIVMTQSPDSLAVSLGERATISCKSSQSLLNSGNQKNYLTWYQQKPGQPPKLLIYWASTRESGVPDRFTGSGSGTVFTLTISSLQAEDVAVYFCQNNYYYPLTFGGGTKVEIKR
notes: Humanized from QP199200
With B3, the FACS reading came to 14200 in [1]; 7460 in [4]; 732 in [5]; 2480 in [6]; 108000 in test [8]; 149000 in [9]. Moreover, the FACS reading amounted to 45600 in [10] and 117000 in test [11]. The MFI in test [2] was 540000. The “CLDN18.2/CLDN18.1 (MFI ratio)” value in [3] was determined as 501. This molecule showed an EC50 in test [7] of 0.498 µg/mL. Also, the max in test [7] was determined as 149000.

B4: QP14501446 (antibody, human IgG1, kappa, V domains shown)
VH: EVQLVESGGGLVQPGGSLRLSCAASGFTFSSFGMHWVRQAPGKGLEWVAYISSGSNSIYYVDTVKGRFTISRDNAKNSLYLQMNSLRDEDTAVYYCARNAYYGNSFDYWGQGTLVTVSS
VL: DIVMTQSPDSLAVSLGERATINCKSSQSLLNSGNQKNYLTWYQQKPGQPPKLLIYWASTRESGVPDRFSGSGSGTDFTLTISSLQAEDVAVYYCQNNYYYPLTFGGGTKVEIKR
notes: Humanized from QP199200
In the case of B4, the FACS reading in test [1] turned out to be 13900; in [4], 6350; in test [5] it was 732; in test [6], 2330; in [8], 96200; in [9] it was 143000. Further, the FACS reading was 39500 in test [10] and 160000 in test [11]. Also, the MFI in [2] worked out at 505000. Moreover, the “CLDN18.2/CLDN18.1 (MFI ratio)” value in test [3] came out at 510. Besides, the EC50 in [7] worked out at 0.962 µg/mL. Besides, in test [7], the max was determined as 143000.

B5: QP14491448 (antibody, human IgG1, kappa, V domains shown)
VH: EVQLVESGGGLVQPGGSLRLSCAASGFTFSSFGMHWVRQAPGKGLEWVSYISSGSNSIYYVDTVKGRFTISRDNAKNSLYLQMNSLRDEDTAVYYCARNAYYGNSFDYWGQGTLVTVSS
VL: DIVMTQSPDSLAVSLGERATISCKSSQSLLNSGNQKNYLTWYQQKPGQPPKLLIYWASTRESGVPDRFTGSGSGTVFTLTISSLQAEDVAVYFCQNNYYYPLTFGGGTKVEIKR
notes: Humanized from QP199200
B5: the FACS reading in test [1] was 19200; in test [4], 6320; in test [5], 732; in test [6], 2410; in test [8], 132000; in test [9], 154000. In addition, the FACS reading amounted to 45100 in [10] and 183000 in test [11]. The molecule also came in with an MFI in test [2] of 484000. Besides, the “CLDN18.2/CLDN18.1 (MFI ratio)” value in test [3] was found to be 487. In test [7], this molecule came in with an EC50 of 0.666 µg/mL. The molecule also registered a max in test [7] of 154000.
